Assay results from patent publication US20090081195A1 (OTTAWA HEALTH RESEARCH INSTITUTE, published 2009).

T1: GST-SLK 950-1202 (GST-tagged SLK ATH domain) (murine, UniProt O54988 981-1233)
T1 construct: Bacterially expressed GST fusion on glutathione sepharose; also called GST-ATH; not shown: glutathione S-transferase (GST) tag of pGEX-5X or pGEX-4T1 (Amersham)
T1 sequence: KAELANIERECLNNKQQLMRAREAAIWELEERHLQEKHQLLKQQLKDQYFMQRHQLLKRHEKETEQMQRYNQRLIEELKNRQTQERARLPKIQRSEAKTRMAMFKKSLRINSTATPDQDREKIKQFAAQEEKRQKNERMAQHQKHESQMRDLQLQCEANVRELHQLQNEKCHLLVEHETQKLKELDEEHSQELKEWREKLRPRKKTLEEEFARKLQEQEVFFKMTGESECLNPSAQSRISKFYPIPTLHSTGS

B1: HA-Ldb2 LBD (aa 298-373) (other, mouse, UniProt O55203 298-373, looked up, not shown: small tags and cut ends)
chain: DVMVVGEPTLMGGEFGDEDERLITRLENTQYDAANGMDDEEDFNNSPALGNNSPWNSKPPATQETKSENAPPQASQ
modifications: [35S]-methionine label
notes: In vitro translated
B2: HA-Ldb2 NLS (aa 188-288) (other, mouse, UniProt O55203 188-288, looked up, not shown: small tags and cut ends)
chain: SKNITRMGLTNFTLNYLRLCVILEPMQELMSRHKTYNLSPRDCLKTCLFQKWQRMVAPPAEPTRQPTTKRRKRKNSTSSTSNSSAGNTTNSAGSKKKTPAA
modifications: [35S]-methionine label
notes: range 188-288; In vitro translated; also called Ldb2 nuclear localization signal domain
B3: HA-Ldb2 DD (aa 1-186) (other, mouse, UniProt O55203 1-186, looked up, not shown: small tags and cut ends)
chain: MSSTPHDPFYSSPFGPFYRRHTPYMVQPEYRIYEMNKRLQSRTEDSDNLWWDAFATEFFEDDATLTLSFCLEDGPKRYTIGRTLIPRYFSTVFEGGVTDLYYILKHSKESYHNSSITVDCDQCAMVTQHGKPMFTKVCTEGRLILEFTFDDLMRIKTWHFTIRQYRELVPRSILAMHAQDPQVLDQ
modifications: [35S]-methionine label
notes: In vitro translated; also called Ldb2 dimerization domain

The binders below were run against T1, GST-SLK 950-1202 (GST-tagged SLK ATH …) (assay: binding of [35S]-labeled Ldb2 deletions to GST-ATH).
Protocol: (c) Schematics of Myc epitope-tagged SLK deletion mutants. […] (d) Co-transfection of HA-tagged Ldb2 and Myc-tagged SLK deletion constructs was performed in HEK 293 cells. Extracts were immunoprecipitated with anti-HA antibody (12CA5) and immunoblotted with anti-Myc antibody (9E10) (bottom panel). Expression of the transfected constructs was confirmed by western blotting (top and middle panels). […] (e) Reciprocal co-IP showing that full length HA-SLK associates with Myc-Ldb1 and 2. (f) Association of endogenous SLK and Ldb. Ldb1 was immunoprecipitated from protein lysates obtained from MEF cells and primary neurons and subjected to western blot analysis with an anti-SLK antibody. A 220 KDa band corresponding to SLK co-precipitated with […]. Reciprocal immunoprecipitations were also performed on N1E 115 neuroblastoma cells or primary cortical neurons. A 50 Kda band corresponding to Ldb1 co-precipitated with SLK. As a control for non-specific binding to the sepharose beads, protein-A sepharose beads alone were added to 400 μg of the same protein lysates. Similar results were obtained with Ldb2
To map the Ldb1/2 domains of interaction, [35S]-labeled deletions of Ldb1 were assayed for binding to a GST-tagged SLK ATH domain (FIG. 17a). […] In addition, versions of Ldb2 lacking the C-terminal LIM binding domain (ΔLBD) were able to bind the SLK ATH domain while the LBD of Ldb2 by itself could not bind (FIG. 17b). Further deletion of 62 amino acids from the carboxy terminal end of the dimerization domain (DDΔC) retained binding thus refining the Ldb2 binding region to the SLK ATH domain in the C-terminal 124 amino acids of Ldb2. An analogous set of Ldb1 deletion mutants were tested for binding to GST-ATH with similar results (data not shown).
B1: no binding. B2: binds. B3: binds.
